{"source": "paper PMC10659930", "about": "(Cell Chemical Biology, 2023)", "binders": {"B1": {"name": "ADPT02606 (antibody, V domains shown)", "VH": "EVQLVESGGGLVKPGGSLRLSCAASGFTFSSYSMNWVRQAPGKGLEWVSSITSSSGYMYYADSVKGRFTISRDNAKNSLYLQLNSLRAEDTAVYYCAKDSAFDLWEVRSYYYVMDVWGQGTTVTVSS", "VL": "not shown"}}, "target": "SARS-CoV-2 spike S1 domain (SARS-CoV-2, ancestral (Wuhan-Hu-1/WA1 …, UniProt P0DTC2))", "experiment": "ELISA", "data": [{"binder": "B1", "values": [{"measurement": "binding result", "result": "binds"}]}]}
